Reference: patent publication US20190134064A1, “SELECTIVELY DEGLYCOSYLATED VITAMIN D-BINDING PROTEIN (GCMAF), CHOLECALCIFEROL (CALCIOL), AND PRODUCTION METHOD” (HG PHARMA GMBH, priority 2016, published 2019)

How the values were obtained:
Peritoneal mouse cells = experiment: Phagocytosis activation (phagocytosis index, opsonized sheep red blood cells); assay type: cell-based; conditions: for phagocytic activity (comparison in words): compared with GcMAF-calcitriol or GcMAF alone; for Macrophage activity: phagocytosis index, three hours of drug treatment, opsonized SRBC cultured for 90 minutes, 250 macrophages counted
Description: Phagocytosis activation was determined as described by Hammarstrom S and Kabat EA in “Studies on specificity and binding properties of the blood group A reactive hemagglutinin from Helix pomatia”, Biochemistry 10: 1684-1692, 1971.
Peritoneal mouse cells were coated in a 24-well plate onto cover glasses. After three hours of drug treatment, the cultures were tested for phagocytic activity. Sheep red blood cells (SRBC) were opsonized using hemolytic rabbit serum (anti-sheep red blood C12HSB cells, Serotec Ltd. England). Opsonized SRBC (0.5%) in RPMI 1640 (serum-free) were layered onto each macrophage-coated cover glass and cultured for 90 minutes. The non-internalized erythrocytes were lyzed by immersing the cover glass in a hypotonic solution (⅕ PBS). The macrophages were fixed with methanol, air-dried, and Giemsa stained. The number of phagocytosed erythrocytes per cell was microscopically determined; 250 macrophages were counted for each data point. The data are expressed as a phagocytosis index, which is defined as the percentage of macrophages with engulfed erythrocytes multiplied by the average number of erythrocytes per macrophage.

[1] = system: monocytes from human whole blood; experiment: Formation of superoxide radical anions; assay type: cell-based; set-up: Superoxide activity: unit not given here; conditions: for Superoxide activity: test substance 50 pg/ml, 3 h incubation; for formation of superoxide radical anions (comparison in words): compared with the other substances tested
Description: Determination of the formation of superoxide radical anions in monocytes from human whole blood was carried out as follows:
Isolation of peripheral mononuclear cells is carried out by density gradient centrifugation from heparinized whole blood. The blood is diluted 1:2 with PBS (without Ca/Mg) and layered onto 15 ml of Histopaque-1077. After this, the cell suspension is centrifuged for 30 min at 700×g and 20° C. The interphase with the mononuclear cells is carefully removed with a Pasteur pipette, made up with 30 ml of PBS (without Ca/Mg), and centrifuged for 5 min at 350×g. The supernatant is decanted, and the cells are taken up in RPMI 1640 medium and counted in the flow cytometer. The cells are adjusted to 10^5 monocytes/ml. For the test batch, 1 ml of cell suspension is pipetted into each 5 ml tube. LPS 100 ng/ml is used as a control. The test substance (GcMAF, GcMAF-calciol or GcMAF-calcitriol) is used in a concentration of 50 pg/ml. The cells are incubated for a total of 3 h in the CO2 incubator. 15 min before the end of incubation, 5 μl each of CD45-V450 antibody and 1 μl of a 1 mM MitoSOX stock solution are added. After this, the cell suspension is made up with 2 ml each of RPMI medium and centrifuged for 5 min at 350×g at room temperature. The supernatant is decanted, and the cells are resuspended in 500 μl of RPMI medium. The cells are measured and analyzed in the flow cytometer. Evaluation is carried out based on the average fluorescence intensity, as described by Saharuddin Bin Mohamad, Hideko Nagasa Wa, Yoshihiro Uto, and Hitoshi Hori in “Preparation of Gc Protein-Derived Macrophage Activating Factor (GcMAF) and its Structural Characterization and Biological Activities”, Anticancer Research 22: 4297-4300 (2002).
Superoxide formation assay
The method used was a modified version of that described by Johnston et al. In brief, after three-hour treatment of the samples, the plates were washed twice with PBS (-) and once with Krebs-Ringer phosphate buffer, pH 7.4, 1.5 ml of 50 μM cytochrome C in Krebs-Ringer phosphate buffer was added, and phorbol myristate acetate (PMA) was added to a final concentration of 5 μg/ml in each well and cultured for 90 minutes in a moistened incubator.
The reaction was stopped using an ice bath. The cultured medium was placed in an Eppendorf tube and centrifuged at 8000 g. The optical density of the supernatant was spectrometrically determined at 550 nm with reference at 540 nm (U-2000, Hitachi) using mixtures of plates without cells as a blank measurement. The concentration of reduced cytochrome C was determined using the equation E550nm=[…].

[2] = system: receptor sites of the ELISA test; experiment: Binding to the receptor sites of the ELISA test for vitamin D; conditions: ELISA test selective for calcidiol
Text: The standard test for vitamin D in the blood, the ELISA test, is selective for calcidiol (which has an OH group at position 25). […] The same applies for the complex GcMAF-calcitriol.

Toxicity = experiment: Toxicity
Text: (§1) The complex according to the invention can be orally administered. […] Moreover, the complex according to the invention is not toxic.

[3] = Vitamin D content in the blood after oral administration; assay type: in vivo
Text: as §1

monocytic cells = experiment: Monocytic cells after oral administration; assay type: in vivo

| Molecule | phagocytic activity (comparison in words) (Peritoneal mouse cells) | Macrophage activity (Peritoneal mouse cells) | Superoxide activity [1] | binding to the receptor sites of the ELISA test [2] | formation of superoxide radical anions (comparison in words) [1] | formation of superoxide radical anions (comparison in words) ([1]; listed as complex according to the invention) | toxicity (Toxicity) | vitamin D content in the blood ([3]; 12 h after oral administration, 35.9 nM before administration) | absorption in oral administration ([3]; oral administration) | monocytic cells, subsequently converted into macrophages (monocytic cells) |
| --- | --- | --- | --- | --- | --- | --- | --- | --- | --- | --- |
| GcMAF-calcitriol: comparative complex; same production method carried out with calcitriol instead of cholecalciferol (protein, UniProt P02774 17-474, looked up, deglycosylated (GcMAF); complexed with calcitriol, comparative complex; same production method carried out with calcitriol instead of cholecalciferol) Vitamin D-binding protein: LERGRDYEKNKVCKEFSHLGKEDFTSLSLVLYSRKFPSGTFEQVSQLVKEVVSLTEACCAEGADPDCYDTRTSALSAKSCESNSPFPVHPGTAECCTKEGLERKLCMAALKHQPQEFPTYVEPTNDEICEAFRKDPKEYANQFMWEYSTNYGQAPLSLLVSYTKSYLSMVGSCCTSASPTVCFLKERLQLKHLSLLTTLSNRVCSQYAAYGEKKSRLSNLIKLAQKVPTADLEDVLPLAEDITNILSKCCESASEDCMAKELPEHTVKLCDNLSTKNSKFEDCCQEKTAMDVFVCTYFMPAAQLPELPDVELPTNKDVCDPGNTKVMDKYTFELSRRTHLPEVFLSKVLEPTLKSLGECCDVEDSTTCFNAKGPLLKKELSSFIDKGQELCADYSENTFTEYKKKLAERLKAKLPDATPTELAKLVNKHSDFASNCCSINSPPLYCDSEIDAELKNIL | virtually identical to the phagocytic activity of GcMAF alone | 73.2 | 188 | does not bind |  |  |  |  |  |  |
| GcMAF-calciol: dimeric complex of a selectively deglycosylated vitamin D-binding protein (GcMAF) and cholecalciferol (calciol) (protein, UniProt P02774 17-474, looked up, deglycosylated (GcMAF); complexed with cholecalciferol) Vitamin D-binding protein: LERGRDYEKNKVCKEFSHLGKEDFTSLSLVLYSRKFPSGTFEQVSQLVKEVVSLTEACCAEGADPDCYDTRTSALSAKSCESNSPFPVHPGTAECCTKEGLERKLCMAALKHQPQEFPTYVEPTNDEICEAFRKDPKEYANQFMWEYSTNYGQAPLSLLVSYTKSYLSMVGSCCTSASPTVCFLKERLQLKHLSLLTTLSNRVCSQYAAYGEKKSRLSNLIKLAQKVPTADLEDVLPLAEDITNILSKCCESASEDCMAKELPEHTVKLCDNLSTKNSKFEDCCQEKTAMDVFVCTYFMPAAQLPELPDVELPTNKDVCDPGNTKVMDKYTFELSRRTHLPEVFLSKVLEPTLKSLGECCDVEDSTTCFNAKGPLLKKELSSFIDKGQELCADYSENTFTEYKKKLAERLKAKLPDATPTELAKLVNKHSDFASNCCSINSPPLYCDSEIDAELKNIL | significantly higher | 83.5 | 142 | does indeed bind | lower | lowest of all of the substances tested | not toxic | 44.25 nM | absorbed by the body in oral administration | significant increase |
| Gc-calcidiol: complex of vitamin D-binding protein (Gc) and calcidiol (protein, UniProt P02774 17-474, looked up, complexed with calcidiol) Vitamin D-binding protein: LERGRDYEKNKVCKEFSHLGKEDFTSLSLVLYSRKFPSGTFEQVSQLVKEVVSLTEACCAEGADPDCYDTRTSALSAKSCESNSPFPVHPGTAECCTKEGLERKLCMAALKHQPQEFPTYVEPTNDEICEAFRKDPKEYANQFMWEYSTNYGQAPLSLLVSYTKSYLSMVGSCCTSASPTVCFLKERLQLKHLSLLTTLSNRVCSQYAAYGEKKSRLSNLIKLAQKVPTADLEDVLPLAEDITNILSKCCESASEDCMAKELPEHTVKLCDNLSTKNSKFEDCCQEKTAMDVFVCTYFMPAAQLPELPDVELPTNKDVCDPGNTKVMDKYTFELSRRTHLPEVFLSKVLEPTLKSLGECCDVEDSTTCFNAKGPLLKKELSSFIDKGQELCADYSENTFTEYKKKLAERLKAKLPDATPTELAKLVNKHSDFASNCCSINSPPLYCDSEIDAELKNIL |  |  |  | does not bind |  |  |  |  |  |  |
| GcMAF, produced as described: selectively deglycosylated vitamin D-binding protein, self-produced, with final filtration via a 100,000 Da filter (protein, UniProt P02774 17-474, looked up, selectively deglycosylated (GcMAF)) Vitamin D-binding protein: LERGRDYEKNKVCKEFSHLGKEDFTSLSLVLYSRKFPSGTFEQVSQLVKEVVSLTEACCAEGADPDCYDTRTSALSAKSCESNSPFPVHPGTAECCTKEGLERKLCMAALKHQPQEFPTYVEPTNDEICEAFRKDPKEYANQFMWEYSTNYGQAPLSLLVSYTKSYLSMVGSCCTSASPTVCFLKERLQLKHLSLLTTLSNRVCSQYAAYGEKKSRLSNLIKLAQKVPTADLEDVLPLAEDITNILSKCCESASEDCMAKELPEHTVKLCDNLSTKNSKFEDCCQEKTAMDVFVCTYFMPAAQLPELPDVELPTNKDVCDPGNTKVMDKYTFELSRRTHLPEVFLSKVLEPTLKSLGECCDVEDSTTCFNAKGPLLKKELSSFIDKGQELCADYSENTFTEYKKKLAERLKAKLPDATPTELAKLVNKHSDFASNCCSINSPPLYCDSEIDAELKNIL |  | 73.0 | 199 |  |  |  |  |  |  |  |
| GcMAF, purchased from Metavectrum, Germany: GcMAF purchased from Metavectrum, Germany (protein, UniProt P02774 17-474, looked up, selectively deglycosylated (GcMAF)) Vitamin D-binding protein: LERGRDYEKNKVCKEFSHLGKEDFTSLSLVLYSRKFPSGTFEQVSQLVKEVVSLTEACCAEGADPDCYDTRTSALSAKSCESNSPFPVHPGTAECCTKEGLERKLCMAALKHQPQEFPTYVEPTNDEICEAFRKDPKEYANQFMWEYSTNYGQAPLSLLVSYTKSYLSMVGSCCTSASPTVCFLKERLQLKHLSLLTTLSNRVCSQYAAYGEKKSRLSNLIKLAQKVPTADLEDVLPLAEDITNILSKCCESASEDCMAKELPEHTVKLCDNLSTKNSKFEDCCQEKTAMDVFVCTYFMPAAQLPELPDVELPTNKDVCDPGNTKVMDKYTFELSRRTHLPEVFLSKVLEPTLKSLGECCDVEDSTTCFNAKGPLLKKELSSFIDKGQELCADYSENTFTEYKKKLAERLKAKLPDATPTELAKLVNKHSDFASNCCSINSPPLYCDSEIDAELKNIL |  | 68 | 150 |  |  |  |  |  |  |  |
